Test results reported in patent US20240109974A1 (SHANDONG SIMCERE BIOPHARMACEUTICAL, published 2024).
Substitutions are numbered along the chain they refer to. Each block holds one binder with its values, some of them ahead of it.

What was measured:
[1] = target: T1, human TNFR2 on the surface of CHO-TNFR2 cells (human, UniProt P20333 23-461); assay: flow cytometry on CHO-TNFR2 cells; EC50 against 224-WT
T1 construct: whole, on cells
T1 sequence (looked up): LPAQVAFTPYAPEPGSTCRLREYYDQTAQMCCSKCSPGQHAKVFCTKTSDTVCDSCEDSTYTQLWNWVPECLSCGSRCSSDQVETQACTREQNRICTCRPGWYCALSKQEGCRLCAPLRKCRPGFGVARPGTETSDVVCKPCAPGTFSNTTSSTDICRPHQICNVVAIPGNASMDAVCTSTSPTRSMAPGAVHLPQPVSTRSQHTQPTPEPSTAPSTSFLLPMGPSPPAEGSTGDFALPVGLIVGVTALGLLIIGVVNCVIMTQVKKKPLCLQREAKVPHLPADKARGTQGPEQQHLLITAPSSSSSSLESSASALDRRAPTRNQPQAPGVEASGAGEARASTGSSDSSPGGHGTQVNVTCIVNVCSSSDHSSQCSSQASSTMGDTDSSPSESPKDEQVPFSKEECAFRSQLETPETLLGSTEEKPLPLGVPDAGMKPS
Experimental: The transfected full-length plasmid of human TNFR2 was purchased from Sino Biological (Cat #HG10417-UT, NCBI Ref Seq: NM_001066.2). The experiment was conducted at a cell density within 80%. The cell medium was discarded; the cells were rinsed with PBS, and digested with 1 ml trypsin for 2 minutes; the digestion was stopped with a Ham's F12 complete medium containing 10% FBS, and then a cell suspension was made. The cell suspension was counted, and then an appropriate amount of cell suspension was centrifuged at 350×g; the supernatant was discarded; a corresponding volume of blocking solution (10% FBS+PBS) at a density of 1×10⁷ cells/ml was added to resuspend the cells, and the mixture was incubated at 4° C. for 30 minutes. After the incubation, the mixture was centrifuged at 350×g to remove the supernatant, and the cells were resuspended in a staining buffer (2% FBS+PBS) to a density of 2×10⁶ cells/ml, and spread onto a 96-well plate, with 50 μl of cell suspension added to each well for later use. The antibody was diluted with PBS for 10-fold gradient dilution from the highest concentration of 20 μg/m (twice the concentration); the diluted antibody was added to the well containing 50 μl of cell suspension, and placed on a microplate shaker for shaking at 500 rpm for 1 minute, so that the antibody was fully mixed with the cells; the mixture was incubated at 4° C. for 1 h. After the incubation, the cells were washed twice with the staining buffer, with 100 μl per well, and centrifuged at 350-g for 5 minutes, and the supernatant was discarded. The PE goat anti-Human IgG Fc antibody (ebioscience, Cat #12-4998-82) was diluted 250-fold with the staining buffer, with a volume of 100 μl per well added to the washed cell wells; the mixture was mixed evenly, and stained at 4° C. for 30 minutes. After the staining, similarly, the cells were washed twice with the staining buffer; finally, the cells were resuspended in 200 μl of staining buffer; signals were detected by a flow cytometer (Thermo Attune NxT). The stronger the signal, the stronger the binding ability of an antibody to TNFR2. The binding curve of an antibody was drawn with antibody concentration as the abscissa and corresponding mean fluorescence intensity (MFI) fold as the ordinate, and fitted with four parameters (GraphPad Prism9) to calculate the EC50 value.

[2] = target: T2, human TNFR2 (Novoprotein, Cat #C830) (human, UniProt P20333 23-257, limits assumed); assay: competition ELISA, competitor human TNFα-Biotin; IC50 against 224-WT
T2 construct: construct not described; also called human TNFR2 protein
T2 sequence (looked up): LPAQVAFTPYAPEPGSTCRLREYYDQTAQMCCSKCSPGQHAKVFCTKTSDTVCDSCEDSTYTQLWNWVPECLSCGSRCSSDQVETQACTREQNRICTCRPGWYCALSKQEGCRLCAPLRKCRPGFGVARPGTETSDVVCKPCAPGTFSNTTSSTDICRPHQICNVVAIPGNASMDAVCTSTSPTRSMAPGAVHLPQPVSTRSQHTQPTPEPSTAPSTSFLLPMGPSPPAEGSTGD
Experimental: 1 μg/ml human TNFR2 (Novoprotein, Cat #C830) was pre-coated with 100 μl/well […] in an ELISA plate. All the test TNFR2 antibodies were subjected to 2.5-fold gradient dilution from the highest concentration of 30 μg/ml; the diluted antibodies were mixed with 15 ng/ml human TNFα-Biotin (Acro Biosystem, Cat #TNA-H82E3) in equal volume, respectively; the resulting mixture was added to the ELISA plate at 100 μl/well, and incubated with shaking at room temperature for 2.0 hours. The plate was washed, and then a Streptavidin-HRP working solution (diluted at 1:10000) was added at 100 μl/well, and the mixture was incubated with shaking at room temperature for 40 minutes. The plate was washed again, and then the substrate TMB of HRP was added to develop colour. A stop solution was added to stop the reaction, and then a microplate reader (MD 13) was used to read the absorbance value. The inhibitory curve of an antibody was drawn with antibody concentration as the abscissa and corresponding OD value as the ordinate, and fitted with four parameters (GraphPad Prism9) to calculate the IC50 value. The smaller the IC50 value, the stronger the ability of an antibody to inhibit the binding of human TNFα to human TNFR2. The blocking effect of a humanized antibody was normalized to its corresponding human-murine chimeric antibody WT. The higher the percentage value, the better the inhibitory effect of the humanized antibody.

% Relative activity (WT antibody/test antibody) [1]: 139%
% Relative activity (WT antibody/test antibody) [2]: 115%
B4: 224-Hu6 (antibody, V domains shown)
VH: QVQLVQSGAEVKKPGASVKVSCKASGFNNKDIYMHWVRQAPGQGLEWIGRIDPATGNTKHDPKFQDRVTMTSDTSTNTVYMELSSLRSEDTAVYYCARSPYGDFGAMDYWGQGTLVTVSS
VL: DIQMTQSPSSLSASVGDRVTITCTASSSVSSNYLHWYQQKPGSSPKLWIYSTSNLPSGVPSRFSGSGSGTDFTLTISSLQPEDFATYYCHQYHRSPWTFGQGTKVEIK
notes: Humanized form of #224; also called VH8 + VL7

% Relative activity (WT antibody/test antibody) [1]: 112%
% Relative activity (WT antibody/test antibody) [2]: 93.1%
B5: 224-Hu5 (antibody, V domains shown)
VH: QVQLVQSGSELKKPGASVKVSCKASGFNNKDIYMHWVRQAPGQGLEWMGRIDPATGNTKHDPKFQDKAVLSSDTSVSTAYLQISSLKAEDTAVYYCARSPYGDFGAMDYWGQGTLVTVSS
VL: B4 VL with S43K, S44A, W48L, F72Y, T73S
notes: Humanized form of #224; also called VH9 + VL9

% Relative activity (WT antibody/test antibody) [1]: 131%
% Relative activity (WT antibody/test antibody) [2]: 105%
B6: 224-Hu4 (antibody, V domains shown)
VH: B5 VH
VL: B4 VL with S43K, S44A
notes: Humanized form of #224; also called VH9 + VL6

% Relative activity (WT antibody/test antibody) [1]: 116%
% Relative activity (WT antibody/test antibody) [2]: 120%
B7: 224-Hu3 (antibody, V domains shown)
VH: B5 VH
VL: B4 VL with S43K, S44A, W48L, P81A, F84A
notes: Humanized form of #224; also called VH9 + VL8

Continued, binder first:

B1: 224-Hu1 (antibody, V domains shown)
VH: B4 VH
VL: B4 VL with S43K, S44A
notes: Humanized form of #224; also called VH8 + VL6
% Relative activity (WT antibody/test antibody) [1]: 94.5%
% Relative activity (WT antibody/test antibody) [2]: 106%

B2: 224-Hu7 (antibody, V domains shown)
VH: B5 VH
VL: B4 VL with S43K, S44A, W48L
notes: Humanized form of #224; also called VH9 + VL10
% Relative activity (WT antibody/test antibody) [1]: 140%
% Relative activity (WT antibody/test antibody) [2]: 106%

B3: 224-Hu2 (antibody, V domains shown)
VH: B5 VH
VL: B4 VL
notes: Humanized form of #224; also called VH9 + VL7
% Relative activity (WT antibody/test antibody) [1]: 119%
% Relative activity (WT antibody/test antibody) [2]: 121%
